Measured values from the NTF2 design screens of Basanta et al. (2020).

Experiment: protease stability score; higher = more stable; yeast display proteolysis, trypsin and chymotrypsin;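 also: relative to predicted unfolded state with 0 unfolded-like and 1 meaning tenfold more protease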

Sequence | protease stability score
SESHHLAKHVVHLFMHAVSTGDEKLLRELLDPDVRVDINGVELIGMEDFQKWLHEWREHMHDSKVHRVRDYNGVLESDVKVRRVLIVDGVRLEEETHSEVIIVKINGRWHVKHVRYR | 1.26
SESHNFFKWALEVLLLSLRTGNERHLETLADPNMRVYINGREHHGRQMYFEMVFRWIEKFPNIQIHIHIEDTRVQGDKVHVDGEYQERFNGKTFVEKVHIIMLKIDGKWVLERDEII | 1.6
SESKEFIKRFTEEILKNTLTGNEDRYEELLDPNVRVEVGDKEHHGREEALEFLHRIWRELRTKHIVLRDMRIIGDKAEVEYEVRVEVNGVELHMTRRMEIVVIDGRLKAVKLEHT | 1.24
SESKHDLIRIFEERSEAHETGDEDFIMELIDPHVKIIIGDKTFHGREKYLEWEKLFGVKHVHFHVKDVRFQGDKVHVNGILRIRVGDKHEEFQVHILITKVNGVWIIKEIEIN | 1.35
SESLEFATKLLEILTHLMYTGDEEDLRHLLDPHVRILFNGKYFHGMEFLMEIYKHWRIQEVRVRFRDVRDVDGRIFVRGEEENVGTINGKRDIVWSHITLIAEKVDGRWVVKEIRIE | 1.88
SESQEVLEMAIRIWRHTVKTGDEREIAELMDPHVRIEVGDKEFIGRELVSHWFLRFSEHMRIHDIEIKRYHVVGNKAHIHTVVDGEVDGKRDYTEVELIVEKVDGRWLIRSMKIR | 2.49
SETDEDFKRLVEEFIRLFLTGDEDQLLELHDPNTRVEVGDFEEHGMEKWSRFLEEERRRVKGLKLVREDEKIEVQGNKLHLILHGAIEFDGVRLFTRIIVHAEKVNGKWVIRRFKMETR | 1.54
SETDELLRQLAEFHRETLETGDFHTLWHLLDPHVRLDYNGQKMHGREHFARFWLELLTELRIHFRVRDIRTQGNKAHNRGEIIIHYDGRLRIIDSEIEIIVVNGKVTEVRHTIN | 0.837
SETDESSRVASELMREWLETGDEEVISELADPHVRFDWNGRRDIGRHSYLEFMHMLRRHMGIKHIEFKRIEVHVINGVVHVNITGILHFNGVQLTTHIHIHAEKIDGRWILKQSHYDTE | 0.751
SETEEAATLMLRMLIETIYTGDEETYKRLADPHVKVRIGDKTFHGREQVIERLHRTWKEMRIEDVEVQDMRYQGDFIRNRTHILLHQGEYRHRFDVEIIVFKFNGQWILTSQHFH | 1.11
SETEEAVKKVTHDLWHALLTGDEEIIRDLFDPHTKILINGVELHGMDEHKDFLDRFDHIHVHDRRIETVIVQGDKAISIGHIHVRFEYGDKHVSVHSEQRLIITKIDGKWIIRFVEIG | 1.22
SETEEEAERFEKILLHYRKTGNEDDLLNFIDPHVRIHQGDKEIHGRELYLELMRRWKEIAGHDFFFMNIHDVEIQGEKAIIDGRLFVNGVHHKIKVIFKKINGRWIVESEHIH | 0.889
SETEEEARKMIELLVEAWLTGDEHTLERMLDPHVKIIIDGRELHGWKVLAERIKHLRYEHFEFELHSVETQGDKIIIRGIVRSDLRVGDKEEHTHLEVIIIITKVNGRWVVHSIEIR | 1.68
SETEEITERWLRLALEALRTGDFEFISRLADPHVRSEYNGVEFIGREEMVRFEEERLERLGATPSDLITRDVEFQGNKVIIHQEMEMRVGDKRHTNETTIFSHKFDGRWILHSIKFH | 0.984
SETEELASKVTKEFKRVLETGDWRVSLNLLDPDTLLEINGVEFHGREAWEEFNERFKNVKIHFIERDMKIVGNKIKIEGHLEDRWNGQSTHREMHLVFDKVNGRWFNRSVHFG | 0.57
SETEENAEHVVREWFEMITTGDEDEVLRLMDPHVRVRIGDKIIHGREIFLAHMRHWRIKNKHFEIEHMHFYGDKAVLDGRLVGEETVDGKHRTYDRRVDFNLVKIDGKWHIREFHVD | 1.52
SETEESLRRYIEDWLTALSTGNEDTLKRLMDPSTRVTVDGVEYHGRSALEEFIKRVDVIHRSDRHDFKIQGEKVHVDVRMDVHIDGQKHTLHSHWLILKINGRWVIHELIFE | 1.99
SETEETSRHLMEMFEKSMLTGDEEHYKRMADPNVRMHINGQEYVGWEDFTRILREIRTEEVRFKVKRYDLVGEYLHVDLRIERDTHVNGVKVEFRTEAELIVVKVDGRWIVKEVRIK | 1.27

Sequence | protease stability score
SETEETVRRFFELLMKLEHTGNEEAIEKLFDPNMKWHQGEKERHGRETFSRMVSELRIHDFRLHRIEIYGDKAIIEGSVDGNFNGQRSEVEVTIHLEKIDGRWFIHSIHLS | 1.15
SETEEWQHQILEILERIQKTGDPHEFMHNADPHVRLHVNGRDFHGMELFKEMFEKFGAKVSHLRDVDIQGDKIHVDGELEFNGVTHKSHVDARKVDGRWVLTRYTIK | 0.415
SETEHYSQKLLDLIVKAMRTGDEEMFERLLDPNTRELVDGQELHGREEWHHLWHRIDHLRIDHSEISHVNPIGEFIVVHMRVRMTLHINGKIHHYETEVIIIILKIDGRWLMHEVRFH | 0.647
SETEKELHEFFRLWIQLFLTGDFDELKHYIDPNVRSVINGRQLIGMEEVWRWREEARIKDIEIKDVRVQGDKIEADGVLEGTINGVDRRTDTHIQLNVVNGVAKHTFIRIR | 1.45
SETEKFAEIALKLWIRRLRTGDEHEESMLADPNTLYVQGDKNIHGMERISRFFKEILTRHGITFNHFHLEHIEVQGNKVRLDLRVDGEFDGQRMNQEVELISIKVDGRWFLESVIIR | 1.62
SETEKHLQDIADILVHAEITGDEETLNKMLDPDVRMHNEVNGREYHIHGREEVLKHWREWVTRFKGARIDIEDVHIINGVVHVNMKIIFNGRRIESRLDVEVVNGRVRTIRIHER | 2.15
SETEKLLHEILEKLIRNEATGNFENIEQLLDPHYRVEIGEFEMHGMEEIIRWLNWVKREMRIKRRHIRTMTWQGDKALVDTELHIQVNGQHIRLDEYIVVLIINGRVKEVRVEHR | 0.943
SETERKVREVLRLLDESLTTGDEREFRHLFDPNARLEIGDWEIHGMEIIDRLLHEIRIEVNDSKVRRIRIQGDKVEVHTRVDLKFNVDGVTERHDRDQHLLILKVNGRWLIKNFYIE | 1.1
SETERYNEELLTKWFHAEHTGNFEMLQRLIDPHARIDINGVEHIGWRQFTKSLEDFGIDHIHHLKIDHFRVFNGRLFIDVTTDGTINGQRHKTKVLIRIVLYNGVIHEMSIEWV | 1.33
SETHEILERIMRMILEILYTGDEESMSRLLDPHVKLVVVIGDKELHLHGRENALRWLVHWRIEDYRLRRYTVQGDKAHVDTESTGNYNGQREESRFSLHVKVINGKIHNMKFEFE | 2.56
SETHKHWEEVARIIIKALETGDFRLFHKLLDPNARLHHDIGDKRVNNVGREEVVRTLKMWIDRFPNVTIELKDMRVIDGVVHHDESLNINGVTVRVHIEIIVFDGKLEEMRIEYR | 1.23
SETHMESKIASEIFSDIMHTGDFRTLLRYADPHVRYIVGDKTMHGREIMVEEFKELWKTWGVDRVEVRIEDIKVIGEKVEIHGTLIIGEKTLRVVVISTKVNGQWIQDTFNVDEK | 0.838
SETKKLWKDLADEVLRAWETGNEEEMEKMLDPHTRLHIHINGRDFHAHGRENIIRMMKFTLDFLGIDHFILRRVTYINGVVHIHQQVIINGQESNVRLEVEIIDGVWHEISVDIH | 1.44
SETREDTRELVESFLNALRTGDEDLLRRLMDPHVKVYFNGREFHGRELATRVESHLRVHDIDVRDMRIIGDKVIIDLQVDGEWDGVRFHRETELHTQKVNGRWFIREIRIH | 2.23
SETREIEEEWLRMMFENFITGDWKEIYKYADPNMRFTLSIGEKQERRHGRESMFHAFRRLEEDLGAKHVRLEDSTVYNGRVEINITLEDGDKHINRYIHIQVVNGRMHTIEVSFR | 0.628
SEVAEVAREIVEIITKREYTGDEKTLDRMMDPNVRVEIGDWEIIGRDIYQKFVIELRVKDMHVRFKDVRVQGDFAFQDTELRMHGIIDGKDRETSHDTHWVFYKVDGRWLVHSIHIK | 1.3
SEVDEQAEHMSRLYLKLIKTGDEEHLMHLADPHTRLDINGKTFIGMEVVHEFNEKERRRVPNMRIHEKSVKVEVFDGRAFTEIHGEWHFDGVTQEIRIEVRIDKVNGRWTIRSVHVEIR | 0.704
SEVEDFLHEFVRKLVRVLDTGDWEVLEKMFDPNTRFHIGDKELHGREEFVKFTEELGIRVRWELKDIRFQGDKAETIGTERVDFNGKEITTDVTFEVLLFNGVIKEIRIRRR | 1.36
